Laboratory results: PMC7112362

Biological target: MERS-CoV papain-like cysteine protease (PLpro), His-tagged (MERS-CoV)
Assay: activity-based probe labelling

K48-linked diUb "in-between" activity-based probe (from UniProt P0CG47 1-75; P0CG47 1-76)
percent of the protease labeled after 15 min: 50%

K48-linked diUb "proximal" activity-based probe (from UniProt P0CG47 1-75; P0CG47 1-75)
percent of the protease labeled after 15 min: 50%
